In the DeepSol protein solubility set:

Assay: soluble on expression in E. coli; label from the status in PepcDB or PDB records

Sequence	soluble on expression in E. coli
MPAVQETIRQVREIDVDQYKYGFETKIKTDKAPKGLNEDIIRFISAKKCEPEWMLKWRLQAFRRWLTMQEPDWARIEYPKIDFQELHYYAAPKNHTGPKSLEEVDPELLATYEKLGIPLKEQEILAGVRKQSDPSTFDESVYASGQVAVDAVFDSVSVVTTFKKELARAGVIFCSISEAIIEHPALINQYLGTVVPVGDNYYAALNAAVFTDGSFVYIPKGVRCPMELSTYFRINERNTGQFERTLIIADEDSYVSYLEGCTAPQRDENQLHAAVVELVALKNAEIKYSTVQNWYPGDKEGNGGIYNFVTKRGDCRGDNSKISWTQIETGSAITWKYPSCLLRGDNSRGEFYSIAVANGHQQIDSGTKMIHLGKNTSSRIVSKGISAGFSNNTYRGQVTAHRKAHNARNFTQCDSLLIGNDCGAHTVPYIEAKNATAQFEHEATTSKISDDQLFYVMQRGIPEEEAIALIVNGFVKEVIQKLPMEFAVEAQKLIGISLEGSVG	not soluble
MGSDKIHHHHHHMPQRIDLRVRPEEATDEQILRKHVARQTKTDPTDIHTIIIRRRSIDARQRQVYVNLGLEVYSGSESPVEDDFSDLIYPSVEGKTAVIVVGAGPAGLFAALRLIELGLRPIILERGKSVHERRADIARIPKEGHVDPESNYGFGEGGAGAFSDGKLYTRSKKRGDITKILRILCKHGAQPSILIDAHPHIGTDRLPKVIENIRHQILAAGGEVHFSCRMESLIIHNGQVVGARDNKGREYCGPVILATGHSARDIYRYLHRNGIRMEAKGTAVGVRLEHPQALIDQLRYHNPKGRGLYLPPAEYTYTAQVEGRGVYSFCMCPGGFVVPASTAPDQTVVNGMSPANRGSRWANSGLVVEIHPEDVLSTPTNDPLALMNWIERLEGESWTQARCSLRAPAQRMTDFLSGRSSVDLPKSSYNMGLTPSRLDEWLPSFITKRIQKAFQLFDRQTKGFLTAEAQLIALESRTSSPVRILRESTSCEHPLLRGLFPCGEGAGYAGGIVSAAMDGERCAEGVASYLG	not soluble
HMIFAKGHGTQNDFVLLPDVDAELVLTAARVAALCDRRKGLGADGVLRVTTAGAAQAVGVLDSLPEGVRVTDWYMDYRNADGSAAQMCGNGVRVFAHYLRASGLEVRDEFVVGSLAGPRPVTCHHVEAAYADVSVDMGKANRLGAGEAVVGGRRFHGLAVDVGNPHLACVDSQLTVDGLAALDVGAPVSFDGAQFPDGVNVEVLTAPVDGAVWMRVHERGVGETRSCGTGTVAAAVAALAAVGSPTGTLTVHVPGGEVVVTVTDATSFLRGPSVLVARGDLADDWWNAMG	soluble
RTHIIGIDQTLVDIEAKVDDAFIEKYGLSKGHSLVIDNDKAEMLYNELKDNNMISNEFAGGTIGNTLHNYSVLADDKSTLLGVMSEDIHIGSYSYRYLCNTSSRMDLNYLQPVPGAIGRCFALISEDGERTFAISEGDMNQLRAESIPEKIFKNASALVLTAYLVRCKEGDPMPEATMKAIEYAKKYDVPVVLTMGTKFVVQDDPQYWRDFLNDHVTVVAMNEEEGEALTGATDPLEAANKTLEWVDLVLCTAGPVGLYMAGYTEDSAKRETSLPLLPGTIAEFNQFEFSRPAVKDSCENPIKVFSHISPYMGGPEKIKNTNGAGDGALSALLHDMAANHYHRNNVPNSSKHQHSFLTYSSFSQVCKYSNRVSFEVLAQHSPRLSRGLPEREDSLEEAYWE	soluble
MPSMSPIDKSWSTCPYGFLDGTHQELRRIFHLWRCKKYRSQFTEEKKATYEEKLAASELFKDKKALYPSSVSQPFKGDYVEITKNPKYQKLNSLVEDKVLLADVVSKINRANGKGTPRIFLLTKKCLVLADQKTGQVKASVPLPDLSSVFVSTQNDGFFALKLREGATSAAKGDYLLSSDRLIEIITKLYCTGAASAERNQIKIDISDEFLVQFKQDKVCVKFIQGTPKNSNSVSCKRKNNRLLEVSVPSP	soluble
MAKRVADAQIQRETYDSNESDDDVTPSTKVASSAVMNRRKIAMPKRRMAFK	soluble
MALELSRLPELLSRIDGYKGQPVTRLAVMLNLLVFIRSSELRYARWSEIDIDNSMWTIPAEREPLPGVKFSHRGSKMRTPHLVPLSKQVVAILAELQTWAGENGLIFTGAHDPRKPISENTVNKALRVMGYDTTQEVCGHGFRAMACSALIESGLWSRDAVERQMSHQERNGVRAAYIHKAEHLEERRLMLQWWADFLDANREKGISPFEYAKINNPLKLEHHHHHH	soluble
MRLPILIINFKAYGEAAGKRAVELAKAAERAARELGVNIVVAPNHLELGLVSQSVDIPVYAQGADVEAGGAHTAHVSLENIKEAGGSGVILNHSEAPLKLNDLARLVAKAKSLGLDVVVCAPDPRTSLAAAALGPHAVAVEPPELIGTGRAVSRYKPEAIVETVGLVSRHFPEVSVITGAGIESGDDVAAALRLGTRGVLLASAAVKAKDPYAKIVELAKPLSELR	soluble
MAHHHHHHMDREDDKKNKFPFTQNNCVVVRSKLDRKNISKMKLSDEQVTANEEITKSVLLKEVNMQDAYDQIGKNANDFSRIYNLFERELLNKSNIKNVYINGIKKNIIVDDGHMKTKVEKKSLKLIDEIHLTYKKRPIILIEKESSNHIINRNNVESFFVHNCLDNSGANRKGTHAASGGGEGAVTGPYNSIPIIYKMFNKKKSIKFSFIENDQISKLTETDWKCVIAVIIKSKESLKDILNEYPFEIPTALFQPFKSFFFMFNDVIIPSDLLTGGNVDIIRLSRDKRKEDYLAVNKFWTNIEKFILQRRDKSCYTRKKKF	not soluble
MGSDKIHHHHHHMSQVNALQLTGISKSFDGFKALIDADFTACWGEVHALLGENGAGKSSLMNIAAGLYAPETGTLMLDDNPVQLQGPKDASRYRIGMVHQHFKLVKPFTVAQNILLALPEQPGEGSYRKRLRMLERDIVRKAEELGFAIDPSRVVDSLSVAEQQRVEILKVLLAGARILILDEPTAVLTDQEAERLLLTVQAFARQGAAVILVTHKMADVKRYADRVTVMRGGRTIQTLDPQRVSVEQLVQLTVGESVPVAAHHPAVPGEVRLQVKDLRSVGGSALNGVNMTLRAGQIYGIAGVGGNGQAELANALMGLPQATEGDIHLAPFGDLRNASAEQRRQLRIASIPADRYGAALAGSLSVAENFGIGNIHSGHYGSFWRLGYKRLKQDAQRAVESFDVQGVRSLDQKAALLSGGNAQKLVIAREFSRDPQLVLVHSPSRGLDVRATQAVHDRLRAARDAGAAVLLISEDLDEVLALADRIGVMNGGRIVAEFDHPADRQAIGKAMVSHD	not soluble
MSLVNTIGFDREKYIEMQSQHIRERREALGGKLYLEMGGKLFDDMHASRVLPGFTPDNKIAMLDRIKDEVEILVCINAKDLERHKIRADLGISYEEDVLRLVDVFRDRGFLVEHVVLTQLENDNRLALAFIERLQRLGIKVSRHRVIPGYPTDMDRIVSDEGFGLNEYAETTRDLVVVTAPGPGSGKLATCLSQVYHEHKRGVAAGYAKFETFPIWNLPLEHPVNLAYEAATVDLNDANVIDHFHLAAYGEQTVNYNRDVEAFPLLKTLLERLMGESPYQSPTDMGVNMAGNCISDDAACRHASEQEIIRRYFKALVEEARTGKDSTQSDRAAVVMAKAGIKASQRVVVEPARQVEERTSLPGCAIELVDGSIITGATSDLLGCSSSMLLNALKHLAGIDDAIHLLSPESIEPIQTLKTVHLGSSNPRLHTDEVLIALSVSAATDSNAQKALDQLKNLRGCDVHTTTILGSVDEGIFRNLGVLVTSDPKFQKNKLYQKREGHHHHHH	soluble
MGSDKIHHHHHHMFAPFAGETSRGEADMSGDLDQATMDRLFAKARTYSKFTKAPVSDDLLRQAWDLARMGPTSVNCQPMRVVFVRSSAAKERLKPALAPGNLDKTMAAPVTAIIAHDMEFYEQLPKLFPHADARAWFVGNEAMIQSTAFRNGTLQGAYFILALRAIGLDCGPMSGFDNAKLDEAFFKGTTLRSNFLVNIGHGDAAGLYPRGPRLDFDEACRVE	not soluble
MGSDKIHHHHHHMSISIYAFYNNKGGVGKTTLCSNAATLYAEKNPKTQVLVIDMCPQANISQFLLGGGKKGYQINQRLQSSATRKNIVGFIDWLLKGNSNFRKPNTSYQVPVYRYNPNISENLYLIAGDSFLESLSLALNYAVINPANIKAWSEYMTAIRRLCEYEYNSETYKDMVVFIDCNPSFSMYTQMALVSSDKIVVPMMADFSSLEGIKSLFMLLFGKYPSAALKQYADGIITFNNQVEHFQLKLPLIYEFVFNNYTIKDGVATAFDSIRTELIDFCYEQFNKFPSLFAPCQHTPTSSKEWENYYFSGIKDFHTSGKVSSSLGIPMSMLPKESKYIMPDGSVVRLPISNYSQALEEIELFVDKIH	not soluble
MAHHHHHHMPHAGNKLVPIGCNMNDAAYPFRGEHRLANCINHGHSGVVKRIPTSIAMRISGSNLVIEEVKTPKGVELECELGVDGGIARPVSLQQASAFMVPSDGHNYNLIAAVKASGNPMKHYCKLTFNGSEGITVLRMRAPEGCSPDAVYIVADGRRLRPTAGWFRIPIHTKECALVANLPLDDAPPPPPPPPPPPPPPPSFSFTATPPLPPAPSGGLAEKTLEATTGAPWTAENVPELETRIHPPLIPNAGAVTLTEPVPAAMPSFVATAPGFSLQLTGENGSSVFGVGVAALPLSHRRAQTVQIVVSDAQGRVLLRQRSHVPSLEPAAVSLAVKDDGKGGLALSANPGSKITVGGVPQADPSATAVLPRVVPQRAVVEQPNADGSVSKATLDVAPTSEPAPVSAAVSKQLPQQPQAPALPEAWVKELSDALQNSNPEEQRHLLQRIYPSSIPGVTIVNFVRDQLTRQPPAISFTVSSNGLEAVQCPGCSVTAAVGNDPARQIPAFGSVALASGKSALLTATSTVRHSAVSACRVQIGVPSAVAFTSPTVSAYPPHAAAGPPMQAGPSADERADSDVVSRLVDCLLRHNLSAPLVARELDSMSTAPFSAQGRRMLSLLTSCLRSATASGAAAAMQAASTQAAAITHAAPEEIFFTCGPGYVDNIYTTQPQYQLFGAVDNQAPQGGAAARPDTCAGYSRG	not soluble
MGSDKIHHHHHHMEPNDAVVGVDVSKEHLDVYLMPTGDQKRVTNDDAGCAELTTWLITNAPCRIVLEATGGLEMLAVSTLSAAGLPVVVVNPRQVRNFAKACGLLAKTDILDAKIIARFAQAIKPEIRPLKDETSQNLAALLARRRQLVEMLVAEKNRVISAAPTVRKGIMTHIAWLTQQIDDVDKDISTLIQSSESWKAKEEILTSVKGIGPVTAATILAALPELGTISRQQLGALVGVCPYNRDSGKFRGKRAISGGRATVRSVLYMATLCAARFNPVIKAFYQRLTSAGKLHKVAITACMRKLLTILNAMVKNNQKWDHSKFTPLLH	not soluble
MGSDKIHHHHHHMKEVTLGRGMIPGVVPSLAFRRDVSSIVAKRNPSPSIRASFPVRDLFHALARSAGDSDTHHAARKFLDERLVEVAHLESDLPHDIAALPQWLEQRCARVRSDYRAYLADRHAGQQARYFSCRAHALHFLQSMAPSRMVEGAWLYGFLKHWREARFAPMCRVYLRNLGDGDPGCNQVSLYQKLLDRNGCADWHGLDDQYYVQGAIRLALGHHVDHYLPEIIGFNLGYDQVSLPMLIAAYELSEQGVLPHYFTLHVTEDDAGASSAMKLLGSLLDTADSAKAREMLLHRVNNGYKLHRLGLDIPGIVASFDLQKAFLAVMQPCAAYLERVYRIDCMERGIRGRWTDSLPLPLLLQQLCNEGWMHPDEKGKTRLWQVLERGNLLPAPGYPQQVVVDWSARSDEYGKRLPHTDVADLVPVSPPPARRPEEAEEHWADFNESGSQADLMEHMIRLLSPLAHHTQEGLKAARIYKSILEKGSELYSQHSALFLWHGRV	not soluble
MGSDKIHHHHHHMPFVSYAQNLEDVRLWRALKLFPRGFYIDVGANHPRIDSVTLAFYERGWRGINIEPLPHLHRELERERPEDLNLNLAIGEREGRATLYEMAASGLSTLDPELARQRQAEGCTATPREVKVSTLDAICAAHVEGPIHFLKIDVEGLEGAVLRGLDLNRWRPWLILAETPFDHDPEWKAPLLAAGYRFVHFDGLNGYYLAEEQARLEGAFALPPNLLDDFQLCHGHAMSHPVAPLEQALEQALQRAEDAERALRDWRALPWYRRLFG	not soluble
